Results: article PMC11868391, “The p3 peptides (Aβ_(17-40/42)) rapidly form amyloid fibrils that cross-seed with full-length Aβ” (Nature Communications, 2025)

Assays:
Full-length Aβ42 = assay: cell-based or functional assay
Full-length Aβ40 = assay: cell-based or functional assay

t50 of ThT fibril growth of Aβ42 monomer with p3_(42) fibril seeds (10% w/w), as a percentage relative to self-seeding (Full-length Aβ42)	t50 of ThT fibril growth of Aβ40 monomer with p3_(40) fibril seeds (10% w/w), as a percentage relative to self-seeding (Full-length Aβ40)	Binder
> 70 % relative to self-seeding t50		LVFFAEDVGSNKGAIIGLMVGGVVIA (numbers count on: the Aβ peptide; Used as SEC-purified monomer, as lag-phase oligomer preparation and as fibril seeds; source: synthetic peptide, bought: EZBiolab Inc; solubilized at pH 10, monomer isolated by SEC) [p3_(42) Peptide Aβ_(17-42)]
	70 % relative to self-seeding t50	LVFFAEDVGSNKGAIIGLMVGGVV (numbers count on: the Aβ peptide; Used as SEC-purified monomer, as lag-phase oligomer preparation and as fibril seeds; source: synthetic peptide, bought: EZBiolab Inc; solubilized at pH 10, monomer isolated by SEC) [p3_(40) Peptide Aβ_(17-40)]
